Sequences and labels used below:
B1: NRC3_random_hg19_82_o1 (dsDNA)
DNA 1: GCCATACAGACTCTAGTCATTTCAAATGTTCTTGCTGCGATTGACAGCGTAGAATGAAGG
DNA 2: CCTTCATTCTACGCTGTCAATCGCAGCAAGAACATTTGAAATGACTAGAGTCTGTATGGC
B2: NRC3_wobSeed111_DR4_G11A_o1 (dsDNA)
DNA 1: GCCGAACTAGATCAGAACAGGACAGTGAAGGATGATGCGATTGACAGCGTAGAATGAAGG
DNA 2: CCTTCATTCTACGCTGTCAATCGCATCATCCTTCACTGTCCTGTTCTGATCTAGTTCGGC
B3: NRC3_random_hg19_98_o1 (dsDNA)
DNA 1: GCGCCAGGCTGGTCTCGACCTCCTGACTTTGTGATCGCGATTGACAGCGTAGAATGAAGG
DNA 2: CCTTCATTCTACGCTGTCAATCGCGATCACAAAGTCAGGAGGTCGAGACCAGCCTGGCGC
B4: NRC3_wobSeed15_DR0_C13A_o1 (dsDNA)
DNA 1: GCCGAACTAGGTAAAGGACAGTGAATCTCCGCACGCGCGATTGACAGCGTAGAATGAAGG
DNA 2: CCTTCATTCTACGCTGTCAATCGCGCGTGCGGAGATTCACTGTCCTTTACCTAGTTCGGC
B5: NRC3_wobSeed102_DR4_G21A_o1 (dsDNA)
DNA 1: GCCCTAGCAGGCCAATCTGGATCACTCAAGGCTTGAGCGATTGACAGCGTAGAATGAAGG
DNA 2: CCTTCATTCTACGCTGTCAATCGCTCAAGCCTTGAGTGATCCAGATTGGCCTGCTAGGGC
B6: NRC3_wobSeed120_DR4_G20C_o1 (dsDNA)
DNA 1: GCCCGAGTAGGTTACGAGGCGGCATTCAGTGCGAATGCGATTGACAGCGTAGAATGAAGG
DNA 2: CCTTCATTCTACGCTGTCAATCGCATTCGCACTGAATGCCGCCTCGTAACCTACTCGGGC
B7: NRC3_wobSeed52_DR2_C21G_o1 (dsDNA)
DNA 1: GCCCTACTGGGCCATCAGGTGATTGATATCAACGTTGCGATTGACAGCGTAGAATGAAGG
DNA 2: CCTTCATTCTACGCTGTCAATCGCAACGTTGATATCAATCACCTGATGGCCCAGTAGGGC
B8: NRC3_wobSeed103_DR4_G21A_o1 (dsDNA)
DNA 1: GCGCATATAGGTAATACAAGATGAAAGTCCGATTGTGCGATTGACAGCGTAGAATGAAGG
DNA 2: CCTTCATTCTACGCTGTCAATCGCACAATCGGACTTTCATCTTGTATTACCTATATGCGC
B9: NRC3_wobSeed138_DR5_T12G_o1 (dsDNA)
DNA 1: GCGATACAGGGGCAGCTAGAGGCCAGAGTATGGAAAGCGATTGACAGCGTAGAATGAAGG
DNA 2: CCTTCATTCTACGCTGTCAATCGCTTTCCATACTCTGGCCTCTAGCTGCCCCTGTATCGC
B10: NRC3_random_hg19_26_o1 (dsDNA)
DNA 1: GCACTCAATACACCAAAGCACATCCTCATCAGACTCGCGATTGACAGCGTAGAATGAAGG
DNA 2: CCTTCATTCTACGCTGTCAATCGCGAGTCTGATGAGGATGTGCTTTGGTGTATTGAGTGC
B11: NRC3_random_hg19_8_o1 (dsDNA)
DNA 1: GCGCTGAAACTGGATCCCTTCCTTACACCTTACACAGCGATTGACAGCGTAGAATGAAGG
DNA 2: CCTTCATTCTACGCTGTCAATCGCTGTGTAAGGTGTAAGGAAGGGATCCAGTTTCAGCGC
B12: NRC3_wobSeed112_DR4_G11C_o1 (dsDNA)
DNA 1: GCTAGCCTAGCTCAGATCGGGCCAGTATACGCTATAGCGATTGACAGCGTAGAATGAAGG
DNA 2: CCTTCATTCTACGCTGTCAATCGCTATAGCGTATACTGGCCCGATCTGAGCTAGGCTAGC
B13: NRC3_random_hg19_288_o1 (dsDNA)
DNA 1: GCCCTGGTTCAAGCGATTCTCCTGCCTCAGCCTCCTGCGATTGACAGCGTAGAATGAAGG
DNA 2: CCTTCATTCTACGCTGTCAATCGCAGGAGGCTGAGGCAGGAGAATCGCTTGAACCAGGGC
B14: NRC3_wobSeed2_DR0_G16C_o1 (dsDNA)
DNA 1: GCCCTAGTTGGTCAACGTCACACACGCTATAGGTACGCGATTGACAGCGTAGAATGAAGG
DNA 2: CCTTCATTCTACGCTGTCAATCGCGTACCTATAGCGTGTGTGACGTTGACCAACTAGGGC
B15: NRC3_wobSeed136_DR5_T12C_o1 (dsDNA)
DNA 1: GCTAGCCTAGGCCATTCAGGGGCCAGTATAGAAAGCGCGATTGACAGCGTAGAATGAAGG
DNA 2: CCTTCATTCTACGCTGTCAATCGCGCTTTCTATACTGGCCCCTGAATGGCCTAGGCTAGC
B16: NRC3_wobSeed27_DR1_G18A_o1 (dsDNA)
DNA 1: GCACTCGGAGGACAAAGATCAGAGCTACGCCAGTGAGCGATTGACAGCGTAGAATGAAGG
DNA 2: CCTTCATTCTACGCTGTCAATCGCTCACTGGCGTAGCTCTGATCTTTGTCCTCCGAGTGC
B17: NRC3_wobSeed122_DR5_C24A_o1 (dsDNA)
DNA 1: GCGCTAGTTGGTCAGTAAAAGGTAACACACCGGTCGGCGATTGACAGCGTAGAATGAAGG
DNA 2: CCTTCATTCTACGCTGTCAATCGCCGACCGGTGTGTTACCTTTTACTGACCAACTAGCGC
B18: NRC3_wobSeed72_DR2_G18C_o1 (dsDNA)
DNA 1: GCTCGAGTAGGTTACGGCGGCATTCAGGGATGAAGAGCGATTGACAGCGTAGAATGAAGG
DNA 2: CCTTCATTCTACGCTGTCAATCGCTCTTCATCCCTGAATGCCGCCGTAACCTACTCGAGC
B19: NRC3_wobSeed42_DR1_G9T_o1 (dsDNA)
DNA 1: GCTATACATGGTCAAAGGCCAGAGTACGAATGTCGAGCGATTGACAGCGTAGAATGAAGG
DNA 2: CCTTCATTCTACGCTGTCAATCGCTCGACATTCGTACTCTGGCCTTTGACCATGTATAGC
B20: NRC3_random_hg19_446_o1 (dsDNA)
DNA 1: GCACTGAACAACCTGATCCTGAATGACTACAGGGTAGCGATTGACAGCGTAGAATGAAGG
DNA 2: CCTTCATTCTACGCTGTCAATCGCTACCCTGTAGTCATTCAGGATCAGGTTGTTCAGTGC
B21: NRC3_random_hg19_78_o1 (dsDNA)
DNA 1: GCTATGACTGGTTACACTGGAAACCTAGAATGAACAGCGATTGACAGCGTAGAATGAAGG
DNA 2: CCTTCATTCTACGCTGTCAATCGCTGTTCATTCTAGGTTTCCAGTGTAACCAGTCATAGC
B22: NRC3_wobSeed119_DR4_A9T_o1 (dsDNA)
DNA 1: GCGGAACGTGGGCATTCGAGTTGATAGCATGGCGATGCGATTGACAGCGTAGAATGAAGG
DNA 2: CCTTCATTCTACGCTGTCAATCGCATCGCCATGCTATCAACTCGAATGCCCACGTTCCGC
B23: NRC3_wobSeed17_DR0_G16A_o1 (dsDNA)
DNA 1: GCATATGTAGGTTAGAGTCATTCAGAAAGTAGGGAAGCGATTGACAGCGTAGAATGAAGG
DNA 2: CCTTCATTCTACGCTGTCAATCGCTTCCCTACTTTCTGAATGACTCTAACCTACATATGC

The target in the data set is THRa:RXRa (Homo sapiens, UniProt P10827;P19793 full;full). Kind of data set: no ligand; PBM; 90 nM : 90 nM RXRa; PBS pH 7.4, 2% milk, 0.02% Triton X-100, 1 mM DTT, BSA, 0.4 mg/ml salmon testes DNA. Conditions: tags: His kept;His cleaved; copies: 1;1; label: surface-attached array probe.
Chain of THRa:RXRa (P10827 other isoform, or with tags, fused parts or gaps, chain 1 of 2): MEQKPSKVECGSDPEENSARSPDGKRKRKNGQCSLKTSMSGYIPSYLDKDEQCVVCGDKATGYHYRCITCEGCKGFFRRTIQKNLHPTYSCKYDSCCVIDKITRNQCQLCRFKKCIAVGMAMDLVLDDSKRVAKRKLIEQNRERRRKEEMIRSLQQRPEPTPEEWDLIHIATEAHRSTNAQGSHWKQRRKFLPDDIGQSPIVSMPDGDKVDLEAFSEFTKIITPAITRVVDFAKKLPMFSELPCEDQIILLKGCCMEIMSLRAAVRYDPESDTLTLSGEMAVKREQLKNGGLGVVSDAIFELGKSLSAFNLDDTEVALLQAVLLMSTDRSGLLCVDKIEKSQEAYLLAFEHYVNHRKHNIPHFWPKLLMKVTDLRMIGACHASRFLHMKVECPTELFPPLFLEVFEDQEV
Chain of THRa:RXRa (P19793 whole entry, chain 2 of 2): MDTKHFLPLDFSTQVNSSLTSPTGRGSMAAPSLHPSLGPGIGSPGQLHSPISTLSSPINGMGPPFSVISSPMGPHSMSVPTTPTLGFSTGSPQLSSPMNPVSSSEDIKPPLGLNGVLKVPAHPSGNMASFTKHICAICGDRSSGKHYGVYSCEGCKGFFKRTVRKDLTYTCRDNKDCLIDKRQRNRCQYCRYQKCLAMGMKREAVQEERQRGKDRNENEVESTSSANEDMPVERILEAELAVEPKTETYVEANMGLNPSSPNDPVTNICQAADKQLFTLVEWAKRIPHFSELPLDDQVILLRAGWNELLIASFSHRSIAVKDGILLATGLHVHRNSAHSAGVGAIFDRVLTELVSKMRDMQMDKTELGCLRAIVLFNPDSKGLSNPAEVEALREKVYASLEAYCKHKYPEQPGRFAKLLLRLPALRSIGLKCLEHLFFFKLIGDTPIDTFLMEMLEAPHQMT
As to B1, the binding signal is 0.12 PBM z-score against 500 random probes.
With B2 the figure was 0.34 PBM z-score against 500 random probes; with B3, -0.14 PBM z-score against 500 random probes.
As for B4, the binding signal is 0.15 PBM z-score against 500 random probes.
As to B5, the binding signal is 0.26 PBM z-score against 500 random probes.
With B6 the figure was -0.27 PBM z-score against 500 random probes.
B7: the binding signal was 0.39 PBM z-score against 500 random probes.
With B8 the figure was 0.11 PBM z-score against 500 random probes.
On to B9, for which the binding signal is 0.48 PBM z-score against 500 random probes.
With B10 the figure was 0.33 PBM z-score against 500 random probes.
For B11, the binding signal was -0.12 PBM z-score against 500 random probes.
Take B12: the binding signal was -0.54 PBM z-score against 500 random probes.
The figure for B13 is 0.5 PBM z-score against 500 random probes; for B14 it is 0.39 PBM z-score against 500 random probes; for B15 it is 0.47 PBM z-score against 500 random probes.
As for B16, the binding signal is 0.36 PBM z-score against 500 random probes.
With B17 the figure was 0.45 PBM z-score against 500 random probes; with B18, 0.41 PBM z-score against 500 random probes.
The figure for B19 is 0.08 PBM z-score against 500 random probes.
The figure for B20 is 0.09 PBM z-score against 500 random probes; for B21 it is 0.42 PBM z-score against 500 random probes.
B22: the binding signal is 0.25 PBM z-score against 500 random probes.
In the case of B23, the binding signal is 0.23 PBM z-score against 500 random probes.

The record behind these values is paper PMC6555819, “Comprehensive study of nuclear receptor DNA binding provides a revised framework for understanding receptor specificity”.
